Measured values as given in PMC12578645 (2025).

B1: PILRα_G78 ectodomain (paired immunoglobulin-like type 2 receptor alpha, HSV-1 gB co-receptor, with R78G) (receptor)
chain: QPSGSTGSGPSYLYGVTQPKHLSASMGGSVEIPFSFYYPWELATAPDVRISWRRGHFHGQSFYSTRPPSIHKDYVNRLFLNWTEGQKSGFLRISNLQKQDQSVYFCRVELDTRSSGRQQWQSIEGTKLSITQAVTTTTQRPSSMTTTWRLSSTTTTTGLRVTQGKRRSDSWHISLETA
B2: PILRα_G78 ectodomain (paired immunoglobulin-like type 2 receptor alpha, HSV-1 gB co-receptor, with R78G) (receptor)
chain: B1 chain
modifications: engineered disulfide A240C-E607C; N-linked glycans (densities seen at 141, 398, 430 and 674)
B3: D48 Fab (Fab, V domains shown)
VH: EVQLVETGGGVVRPGRSLRLSCTTSGFSFSGSAMHWVRQAPGKGLEWVAVISHDGNIIQYHDSVKGRFTISRDNSKNVLLLQMNSLRVDDTAMYYCARDVWLLPATISYAFDFWGQGTMVTVSS
VL: VIWMTQSPPSLSASIGDTVTITCRASQGISNSIAWYQRRPGKAPELLVYAAYRLQSGVPSRLSGSGSGAEYTLTIKNMQPEDFATYYCQQYYDNPLTFGGGTKVEIK
B4: D48 Fab (Fab, V domains shown)
VH: B3 VH
VL: B3 VL
modifications: engineered disulfide A240C-E607C; N-linked glycans (densities seen at 141, 398, 430 and 674)
B5: gB-Ecto.H516P.L531E (HSV-1 glycoprotein B ectodomain stabilized in the prefusion conformation) (domain or fragment)
chain: not shown
modifications: N-linked glycans (densities seen at 141, 398, 430 and 674)

Experiments:
Assay in all cases: SPR
[1] = biological target: B5
[2] = biological target: T1, gB-Ecto.H516P (HSV-1 glycoprotein B ectodomain with H516P and an appended foldon; postfusion) (HSV-1 KOS strain, UniProt P06437 31-728, H516P, N-linked glycans (densities seen at 141, 398, 430 and 674))
[3] = biological target: B5; remark: listed apart in the source
[4] = biological target: T1, gB-Ecto.H516P (HSV-1 glycoprotein B …); remark: listed apart in the source
[5] = biological target: T2, gB-Ecto.H516P.L531E.DS (HSV-1 glycoprotein B ectodomain stabilized in the prefusion conformation with the … (HSV-1 KOS strain, UniProt P06437 31-728, H516P | L531E | A240C | E607C))
[6] = biological target: T2, gB-Ecto.H516P.L531E.DS (HSV-1 …); remark: listed apart in the source
SS55 = biological target: SS55
SS10 = biological target: SS10
DL16 = biological target: DL16

Row | Binder | koff [1] [s⁻¹] | koff [2] [s⁻¹] | Kd [3] [nM] | Kd [4] [nM] | koff [5] [s⁻¹] | Kd [6] [nM] | also measured
1 | B1 | 0.34 | 0.66 | 1600 | 2000 | – | – | –
2 | B2 | – | – | – | – | 0.33 | 1800 | –
3 | B3 | 1.08e-05 | 4.06e-05 | 0.0272 | 0.252 | – | – | –
4 | B4 | – | – | – | – | 2.18e-05 | 0.0827 | –
5 | B5 | – | – | – | – | – | – | Kd (SS55): 7.47 nM; koff (SS55): 0.000208 s⁻¹; Kd (SS10): 1.03 nM; koff (SS10): 5.6e-05 s⁻¹; Kd (DL16): 28.2 nM; koff (DL16): 0.0013 s⁻¹
